Data as given in the supplement of paper PMC12042874.
± gives the uncertainty stated by the source.

Test: amyloid nucleation score (Sup35N fusion, yeast selection) (log enrichment); library NNK3; higher = more nucleation; inactive = no reads after selection
In short: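 Nucleation score is defined as the DiMSum log enrichment of output over input reads, with centring on the mode score of non-aggregating sequences. A minimum of 100 input reads was required for each sequence. Reads came from Illumina sequencing of plasmid inserts from psi-negative yeast expressing Sup35N fused to peptides of 20 random codons, induced with 100 μM copper sulfate for 24 hours and grown 7 days at 30°C on medium lacking adenine and uracil.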

Substance	amyloid nucleation score
SFNLNCDDQSRNYRADVSDS	1.16 ± 0.099
SFNVSRWPRKWISLNCLKIS	inactive
SFPKYRSNEDFPMDIRCNSS	inactive
SFRFLV	inactive
SFSPFVTFNKWSRWGLRNIG	inactive
SFSRCLNSLEVRNKNSWWVG	-0.181 ± 0.75
SFSVPVELSEP	inactive
SFTLPSIGWWYALFRSYWID	inactive
SFYPLCRQAVTDMFNKHCFP	inactive
SFYSNFRESRDLSSYTLNIS	inactive
SFYVLIVQRCELMSVVVMES	inactive
SGFHERCFINQPVFST	inactive
SGFSYRFRDSMGLDKYRCAN	inactive
SGFYNWI	inactive
SGHVHNSMKPGRSRTCTMLR	inactive
SGIIWQYNARLE	inactive
SGIMSHVGGTELLNSLHLMF	inactive
SGITIEF	inactive
SGKSLDDRFSK	inactive
SGLRSTFDNTYTLYY	inactive
SGLVCVT	inactive
SGMTGCTFRYGSRIQF	inactive
SGNTNDSSMHHQNLFFSA	inactive

Substance	amyloid nucleation score
SGSLHACLALWTLTTYCVST	inactive
SGSSMTS	inactive
SGSWVNDSESAEDLT	inactive
SGVYLSGSSLVCNTFFGTNQ	1.78 ± 0.088
SGWLA	inactive
SHFGLDAICFIKLSTDGCTG	inactive
SHFTEFPYLGLHTYAVVE	inactive
SHISWSQYRM	1.58 ± 0.11
SHKFRMITIGPSSMIGALTC	inactive
SHRKMFQGVKQVISSPETHS	inactive
SHSLSVGGFYSPDFRNYTCT	1.98 ± 0.082
SHVLWCNMVNEFVHTLSRCG	1.34 ± 0.082
SHVQWPDAFFYRTSFGQLLS	inactive
SHVSRVNEVSVISMSDINDH	inactive
SHYLLMFLVSDTLV	inactive
SHYRIMT	inactive
SIAIRVRAIIGKSRGKCPNG	1.81 ± 0.092
SICCKVRTSTYVRLCMLVLP	inactive
SICGKSSCMCVTNVSPLDSQ	0.304 ± 0.21
SICIRFF	inactive
SICMNNLCVSWTMPYT	1.5 ± 0.11
SIDVLKTNINDIRFVIKIRR	inactive
SIDYADVK	inactive

Substance	amyloid nucleation score
SIFKVISERQSV	inactive
SIICCAFLVVQFKER	2.62 ± 0.084
SIIGKNYKFRATSINKGISM	inactive
SILMTVYDGYHKRSKNIAQC	inactive
SILTMLPKFGFVESLLECEG	inactive
SINCTYPVRND	inactive
SIQCSK	inactive
SIVDSVQQVSVRWAMYT	-0.433 ± 1.8
SIYLCLYREVSTVWGKRSN	inactive
SKECILVLAFDGCSGSSRWY	inactive
SKLLIPHNNGRYSFFWSIGM	2.04 ± 0.078
SKRNPRMRSQLFIGDYFAYP	-1.13 ± 1.9
SKSFVYPVNVCRRWLAVLGN	inactive
SKSIMTWWEVLDGGSNLKSV	inactive
SKSNIRYSNTNGH	inactive
SKVKDDALPTTILCGTYNLN	inactive
SKVKFILTRVPLFLLRIAES	inactive
SKVRMVGVSKKCGLTVISVQ	inactive
SKWAFPYPA	inactive
SKYPRLSCHRIRNVRLGWTL	1.34 ± 0.085
SLAMTFYSGIGFYCFSCFFN	2.36 ± 0.059
SLCLASGFKRCNIV	-0.072 ± 0.8
SLDFIHRNFVARQCIHNKGH	inactive

Substance	amyloid nucleation score
SLDMYPVVKKCYTYFFFQYF	1.16 ± 0.11
SLFCRWLVVYPSMLRVKRVR	inactive
SLFINT	inactive
SLFKEWAWA	inactive
SLFVLCFH	0.717 ± 0.13
SLKARDVRSWSLSLLVQLAF	inactive
SLKSNTVCDNL	inactive
SLLGISVFKPERANTGQRLV	0.721 ± 0.23
SLLLLSGFEVSSKR	inactive
SLLSRFIEEGASCRCTRDGS	inactive
SLMSGWN	inactive
SLNMSN	inactive
SLNNCGLLWYPSTTPPESLG	inactive
SLNRWLSKYYLHTA	inactive
SLRPGLVLVIERNEFKS	inactive
SLSFSVLLHWIFCYFWILY	inactive
SLSNSVWINFARNGLSSLCQ	inactive
SLSPDPFEFLLLSLLLRSAV	inactive
SLVGGICVRHREDVDTQKFK	inactive
SLVPDNAANAMRPTWINLWW	1.84 ± 0.078
SLVTFMLLMIKGMSGYFRTV	inactive
SLWMFCYSDSYRCKDNFLRN	inactive
SLYGKDYTKTVFSDAVFVCF	inactive

Substance	amyloid nucleation score
SMCKDFSAACESICGIPVGY	inactive
SMGLR	inactive
SMGRYDLLPTPDVVSLSYNM	inactive
SMKSGSATCGIN	inactive
SMNFLICMIWSIVS	1.02 ± 0.21
SMQRNSQFLLAQYTDPGGN	inactive
SMVGVFQKVFKTITTTYADV	inactive
SMWQQVYSLSTLF	inactive
SNEGE	inactive
SNFVIVSWIVTNVLRM	0.869 ± 0.094
SNGLATLSLSWCNCIKGGSL	2.9 ± 0.052
SNHVWFDLFGEYDASCFCTV	inactive
SNIGHM	inactive
SNLDFMMGINSFRRVKAEPG	-0.251 ± 0.57
SNLLS	inactive
SNLNWPWKYPNMWFLLS	inactive
SNLSNPLIVMKFYQAAMGVH	inactive
SNQLSFLYNN	-0.409 ± 0.76
SNSDVN	inactive
SNSYHIVVYVRYGHSHG	2.62 ± 0.083
SNTFTPKGNPLWSSVCVFHQ	inactive
SNVCINLAGYDYIFFRCMMG	0.293 ± 0.24
SNVLGWLRKLYS	inactive

Substance	amyloid nucleation score
SNWKGEISIHEGMLGCT	inactive
SNWVISVLVRVNLAYAYLTD	inactive
SPCYISINTFPVRKILYPCI	-0.264 ± 0.64
SPDVLFESKYRFWDMLSQIA	inactive
SPLLGINYRVFNVCLLERR	0.909 ± 0.21
SPLSRWLVDNTGPLGGSLSR	inactive
SPNNTTFSHYRFCLL	inactive
SPNWGLLGICLSTSRVQAL	1.86 ± 0.082
SPPLYSYRGRYMERYHSKWN	inactive
SPPTGYRASNWRGLGSVDGW	inactive
SPVAYRSTWFVFRNNSHYDQ	inactive
SPWAMGCECLVRGGLEKYAK	inactive
SQKEGNKDRPVCVSGNSSCS	inactive
SQVLWGTSRGLYYTDRNFTN	inactive
SQVVSRSLVRLEQRNAQKSV	inactive
SQYHQASNAMWVLFSGI	inactive
SRCIDGSAWASVAQRRSFSE	-0.098 ± 0.85
SRDMCAWWVYSGSSQSNECM	inactive
SREWSKSVVCTYLTMRGRLS	inactive
SRFDDCSVYRESWVSIVRLS	inactive
SRLTAFMNYVGCRMVSGWTR	inactive
SRMTIIWVTVRISRNGTWNF	inactive
SRMTIVKSWKRMLGRLLMRL	inactive

Substance	amyloid nucleation score
SRQLQPYYSVFRCLVRGSIK	inactive
SRQNIFLLRLKTMTGQSVNI	inactive
SRRNIPVGGLSNWLPVWSVG	inactive
SRRSHWFWEPSDTCASFTRP	inactive
SRRSMHRVVSHVREGS	-0.164 ± 0.96
SRRTIVNQSSF	inactive
SRRVISEHSMEGNTID	inactive
SRVHPPLWIKCTVGMVPQTC	inactive
SRVLDGVWRAVLSCFQGSSI	0.867 ± 0.12
SRVNCLARLRSPARLMPMVR	inactive
SRWNK	inactive
SRWYFGLLLMNNTHTVNVPL	inactive
SRYLGKGFVSGTCDVGCGLN	inactive
SSDIIHGNDVRSLVRRDRSL	inactive
SSDMFFRYESPVH	inactive
SSDYTLVEILSVLFCPVGCS	inactive
SSELLLHGGTYYKIIYK	0.586 ± 0.12
SSESDVNLDVMSKYKFGNIH	inactive
SSFGQICIRSMQYLVGCKWC	inactive
SSFNFTSIVLHIANLLHFFL	inactive
